According to patent US20220175781A1, “CD40L COMPOSITIONS AND METHODS FOR TUNABLE REGULATION” (Obsidian Therapeutics, Inc., priority 2019, published 2022):

Experiments:
Format in all cases: cell-based
[1] = test system: CD8+ T cells; assay: Ligand dose response, % CD40L positive cells, CD8+ T cells
Method: Ligand dose response curve experiments were performed with increasing doses of ligand using OT-001662 and OT-001666 constructs in both CD4+ as well as CD8+ T cells.
The experiments were conducted using three different volumes of virus for transduction i.e. 0.5, 2 and 10 μL.

[2] = test system: T cells; assay: Dose response of TMP, Bazedoxifene or Raloxifene, % CD40L positive T cells; settings: T cells
Method: T cells were transduced with OT-001662 or OT-001666. On day 4, cells were treated with increasing doses of TMP for T cells expressing OT-001662. Cells expressing OT-001666 were treated either with increasing concentrations of Bazedoxifene or Raloxifene. The data are shown in Table 30 as the percentage of CD40L positive T cells.

[3] = test system: Jurkat cells; assay: Linker length, ER regulated CD40L, % CD40L positive Jurkat cells
Method: Jurkat cells were lentivirally transduced and 24 hours after transduction were treated with DMSO or 1 μM Bazedoxifene for another 24 hours and analyzed by flow cytometry for surface expression of CD40L. […] In Table 33, SR indicates stabilization ratio.

[4] = test system: T cells co-cultured with monocyte derived dendritic cells (mDC); assay: CD40L levels in T cells in mDC co-culture (FACS); settings: for % CD40L+ / CD40L MFI: mDC co-culture 2 days; for SR (based on %) / SR (based on MFI): stabilization ratio
From the text: (§1) In order to engage dendritic cells in an immune response, dendritic cells must be converted to a functional state by an antigen-specific CD4+ helper T cell. Activation of the dendritic cells may be followed by the activation of CD8+ T cells by the dendritic cells, a process referred to as dendritic cell licensing. Engagement of the CD40L expressed on the CD4+ cells with the CD40 on the dendritic cells can result in (i) dendritic cell stimulation-measured by expression of co-stimulatory and MHC molecules (ii) proinflammatory cytokine release (e.g. IL12, TNFα and INFγ) (iii) epitope spreading. To measure the effect of CD40L expression that is tuned by the biocircuits of the present disclosure, CD4+ T cells or Jurkat cells expressing any of the CD40L constructs described herein were co-cultured with dendritic cells.
(§2) Dendritic cell function in response to co-culture with T cells expressing CD40L was evaluated in the presence of ligand or corresponding vehicle control. Monocyte derived dendritic cells (mDC) (CD14+) were isolated from fresh blood and cultured for 5 days with IL-4 (7.5 ng/mL) and GM-CSF (20 ng/mL). The mDCs were frozen down after the 5 day culture. T cells were transduced with OT-001662 and expanded for 9 days before being frozen down. mDCs and T cells were thawed and co-cultured 1:10 DC: T cell ratio (i.e. 5×10^4 DCs: 5×10^5 T cells). mDC and T cells were co-cultured for 2 days before cells were collected for flow cytometry and supernatants were collected for cytokine analysis. For evaluation of regulated constructs, ligand (various doses of TMP) was added at the time initiating the co-culture and was kept in the co-culture for 2 days. Cytokines were analyzed by MSD after a single freeze thaw cycle. All cells were cultured in complete RPMI with 10% FBS during the course of the experiment. SR indicates stabilization ratio.

[5] = test system: Monocyte derived dendritic cells (mDC); assay: Cytokine production in mDC-T cell co-culture (MSD); settings: for Cytokine Production IFNg / Cytokine Production IL12 / Cytokine Production TNFa: mDC-T cell co-culture 2 days
From the text: as §1, §2

B1: OT-001666 (Met; ER (305-549 of WT, L384M, N413D, M421G, G521R, Y537S); Histidine; CD40L; stop) (ligand)
chain: MSLALSLTADQMVSALLDAEPPILYSEYDPTRPFSEASMMGLLTNLADRELVHMINWAKRVPGFVDLTLHDQVHLLECAWMEILMIGLVWRSMEHPGKLLFAPNLLLDRDQGKCVEGGVEIFDMLLATSSRFRMMNLQGEEFVCLKSIILLNSGVYTFLSSTLKSLEEKDHIHRVLDKITDTLIHLMAKAGLTLQQQHQRLAQLLLILSHIRHMSNKRMEHLYSMKCKNVVPLSDLLLEMLDAHRLHMIETYNQTSPRSAATGLPISMKIFMYLLTVFLITQMIGSALFAVYLHRRLDKIEDERNLHEDFVFMKTIQRCNTGERSLSLLNCEEIKSQFEGFVKDIMLNKEETKKENSFEMQKGDQNPQIAAHVISEASSKTTSVLQWAEKGYYTMSNNLVTLENGKQLTVKRQGLYYIYAQVTFCSNREASSQAPFIASLCLKSPGRFERILLRAANTHSSAKPCGQQSIHLGGVFELQPGASVFVNVTDPSQVSHGTGFTSFGLLKL
- % CD40L positive cells ([1]; 2 μL virus, BZD 0.05 nM): 0.69%
- % CD40L positive cells ([1]; 2 μL virus, BZD 0.5 nM): 0.52%
- % CD40L positive cells ([1]; 2 μL virus, BZD 5 nM): 0.71%
- % CD40L positive cells ([1]; 2 μL virus, BZD 50 nM): 3.32%
- % CD40L positive cells ([1]; 2 μL virus, BZD 500 nM): 60%
- % CD40L positive cells ([1]; 10 μL virus, BZD 0.05 nM): 0.5%
- % CD40L positive cells ([1]; 10 μL virus, BZD 0.5 nM): 0.2%
- % CD40L positive cells ([1]; 10 μL virus, BZD 5 nM): 0.23%
- % CD40L positive cells ([1]; 10 μL virus, BZD 50 nM): 17.7%
- % CD40L positive cells ([1]; 10 μL virus, BZD 500 nM): 68.5%
- % CD40L positive T cells, dose response ([2]; increasing concentrations of Bazedoxifene): dose dependent increase
- Raloxifene dependent expression ([2]; increasing concentrations of Raloxifene): observed only at the 1 μM dose
- Percent of Jurkat cells expressing CD40L ([3]; 1 μM Bazedoxifene): 30%
- SR ([3]; 1 μM Bazedoxifene versus DMSO, % CD40L positive Jurkat cells): 3
- Percent of Jurkat cells expressing CD40L ([3]; DMSO): 10%

B2: OT-001662: CD40L construct with ecDHFR (M1del, R12Y, Y100I) DRD, ligand TMP (protein)
chain: MSGISLIAALAVDYVIGMENAMPWNLPADLAWFKRNTLNKPVIMGRHTWESIGRPLPGRKNIILSSQPGTDDRVTWVKSVDEAIAACGDVPEIMVIGGGRVIEQFLPKAQKLYLTHIDAEVEGDTHFPDYEPDDWESVFSEFHDADAQNSHSYCFEILERRHMIETYNQTSPRSAATGLPISMKIFMYLLTVFLITQMIGSALFAVYLHRRLDKIEDERNLHEDFVFMKTIQRCNTGERSLSLLNCEEIKSQFEGFVKDIMLNKEETKKENSFEMQKGDQNPQIAAHVISEASSKTTSVLQWAEKGYYTMSNNLVTLENGKQLTVKRQGLYYIYAQVTFCSNREASSQAPFIASLCLKSPGRFERILLRAANTHSSAKPCGQQSIHLGGVFELQPGASVFVNVTDPSQVSHGTGFTSFGLLKL
- % CD40L positive cells ([1]; 0.5 μL virus, TMP 0.05 nM): 0.16%
- % CD40L positive cells ([1]; 0.5 μL virus, TMP 0.5 nM): 0.17%
- % CD40L positive cells ([1]; 0.5 μL virus, TMP 5 nM): 0.12%
- % CD40L positive cells ([1]; 0.5 μL virus, TMP 50 nM): 0.19%
- % CD40L positive cells ([1]; 0.5 μL virus, TMP 500 nM): 0.66%
- % CD40L positive cells ([1]; 0.5 μL virus, TMP 5000 nM): 9.21%
- % CD40L positive cells ([1]; 0.5 μL virus, TMP 50000 nM): 25.2%
- % CD40L positive cells ([1]; 2 μL virus, TMP 0.05 nM): 0.2%
- % CD40L positive cells ([1]; 2 μL virus, TMP 0.5 nM): 0.34%
- % CD40L positive cells ([1]; 2 μL virus, TMP 5 nM): 0.3%
- % CD40L positive cells ([1]; 2 μL virus, TMP 50 nM): 0.64%
- % CD40L positive cells ([1]; 2 μL virus, TMP 500 nM): 6.84%
- % CD40L positive cells ([1]; 2 μL virus, TMP 5000 nM): 40.6%
- % CD40L positive cells ([1]; 2 μL virus, TMP 50000 nM): 51%
- % CD40L positive cells ([1]; 10 μL virus, TMP 0.05 nM): 0.95%
- % CD40L positive cells ([1]; 10 μL virus, TMP 0.5 nM): 1.08%
- % CD40L positive cells ([1]; 10 μL virus, TMP 5 nM): 1.02%
- % CD40L positive cells ([1]; 10 μL virus, TMP 50 nM): 1.07%
- % CD40L positive cells ([1]; 10 μL virus, TMP 500 nM): 5.53%
- % CD40L positive cells ([1]; 10 μL virus, TMP 5000 nM): 47.4%
- % CD40L positive cells ([1]; 10 μL virus, TMP 50000 nM): 59.4%
- % CD40L+ ([4]; CD4+, DMSO): 3.71%
- CD40L MFI ([4]; CD4+, DMSO): 63.8
- % CD40L+ ([4]; CD4+, TMP (0.1 μM)): 4.32%
- CD40L MFI ([4]; CD4+, TMP (0.1 μM)): 69.8
- % CD40L+ ([4]; CD4+, TMP (0.5 μM)): 3.34%
- CD40L MFI ([4]; CD4+, TMP (0.5 μM)): 61.1
- % CD40L+ ([4]; CD4+, TMP (2 μM)): 78%
- CD40L MFI ([4]; CD4+, TMP (2 μM)): 691
- % CD40L+ ([4]; CD4+, TMP (10 μM)): 84.1%
- CD40L MFI ([4]; CD4+, TMP (10 μM)): 1379
- SR (based on %) ([4]; CD4+, TMP (0.1 μM)): 1.16
- SR (based on MFI) ([4]; CD4+, TMP (0.1 μM)): 1.09
- SR (based on %) ([4]; CD4+, TMP (0.5 μM)): 0.90
- SR (based on MFI) ([4]; CD4+, TMP (0.5 μM)): 0.96
- SR (based on %) ([4]; CD4+, TMP (2 μM)): 21.02
- SR (based on MFI) ([4]; CD4+, TMP (2 μM)): 10.83
- SR (based on %) ([4]; CD4+, TMP (10 μM)): 22.67
- SR (based on MFI) ([4]; CD4+, TMP (10 μM)): 21.61
- % CD40L+ ([4]; CD8+, DMSO): 0.47%
- CD40L MFI ([4]; CD8+, DMSO): 57.8
- % CD40L+ ([4]; CD8+, TMP (0.1 μM)): 0.69%
- CD40L MFI ([4]; CD8+, TMP (0.1 μM)): 61.5
- % CD40L+ ([4]; CD8+, TMP (0.5 μM)): 0.57%
- CD40L MFI ([4]; CD8+, TMP (0.5 μM)): 54.5
- % CD40L+ ([4]; CD8+, TMP (2 μM)): 57.8%
- CD40L MFI ([4]; CD8+, TMP (2 μM)): 419
- % CD40L+ ([4]; CD8+, TMP (10 μM)): 74.9%
- CD40L MFI ([4]; CD8+, TMP (10 μM)): 951
- SR (based on %) ([4]; CD8+, TMP (0.1 μM)): 1.47
- SR (based on MFI) ([4]; CD8+, TMP (0.1 μM)): 1.06
- SR (based on %) ([4]; CD8+, TMP (0.5 μM)): 1.21
- SR (based on MFI) ([4]; CD8+, TMP (0.5 μM)): 0.94
- SR (based on %) ([4]; CD8+, TMP (2 μM)): 122.98
- SR (based on MFI) ([4]; CD8+, TMP (2 μM)): 7.25
- SR (based on %) ([4]; CD8+, TMP (10 μM)): 159.36
- SR (based on MFI) ([4]; CD8+, TMP (10 μM)): 16.45
- Ligand dependent regulation of CD40L ([4]; mDC-T cell co-culture 2 days, various doses of TMP, CD4 and CD8+ cells): Ligand dependent regulation of CD40L was evident
- IL12, TMP dose response ([5]; mDC-T cell co-culture): dose responsive increases
- TNFα, TMP dose response ([5]; mDC-T cell co-culture): dose responsive increases
- Cytokine Production IFNg ([5]; DMSO): 3791.2 pg/mL
- Cytokine Production IL12 ([5]; DMSO): 0.2535 pg/mL
- Cytokine Production TNFa ([5]; DMSO): 82.2712 pg/mL
- Cytokine Production IFNg ([5]; TMP (0.1 μM)): 7432.13 pg/mL
- Cytokine Production IL12 ([5]; TMP (0.1 μM)): 0.0705 pg/mL
- Cytokine Production TNFa ([5]; TMP (0.1 μM)): 130.9627 pg/mL
- Cytokine Production IFNg ([5]; TMP (0.5 μM)): 3587.14 pg/mL
- Cytokine Production TNFa ([5]; TMP (0.5 μM)): 83.86 pg/mL
- Cytokine Production IFNg ([5]; TMP (2 μM)): 16375.2 pg/mL
- Cytokine Production IL12 ([5]; TMP (2 μM)): 19.372 pg/mL
- Cytokine Production TNFa ([5]; TMP (2 μM)): 248.7836 pg/mL
- Cytokine Production IFNg ([5]; TMP (10 μM)): 13539.7 pg/mL
- Cytokine Production IL12 ([5]; TMP (10 μM)): 59.254 pg/mL
- Cytokine Production TNFa ([5]; TMP (10 μM)): 251.2844 pg/mL
- levels of IFNγ ([5]; mDC-T cell co-culture, 10 μM TMP): comparable to the levels observed with the constitutive construct OT-001661
- IFNγ, TMP dose response ([5]; mDC-T cell co-culture, lower doses of TMP): dose responsive increase
- % CD40L positive T cells, dose response ([2]; increasing doses of TMP): dose dependent increase
- Percent of cells expressing CD40L ([2]; TMP Dose 0.01 μM): 8.74%
- Percent of cells expressing CD40L ([2]; TMP Dose 0.1 μM): 13.3%
- Percent of cells expressing CD40L ([2]; TMP Dose 1 μM): 38.8%
- Percent of cells expressing CD40L ([2]; TMP Dose 10 μM): 71%
- Percent of cells expressing CD40L ([2]; TMP Dose 100 μM): 73.3%
